FireProtDB (doi:10.1006/abbi.1998.1072)
Where “and” joins values, the source holds several entries; their conditions need not be identical. Identical values can stand only once.

Conditions: pH 7, reversible: no, whole UniProt chain shown; for denaturant m value / denaturant midpoint (higher = more stable): GdnHCl, Tris-HCl 50 mM; for Tm: Thermal, HEPES 20 mM
[1] = Escherichia coli (strain K12), 25 °C, CD
[2] = Escherichia coli (strain K12), 25 °C, Fluorescence
[3] = Sulfolobus acidocaldarius (strain ATCC 33909 / DSM 639 / JCM 8929 / NBRC 15157 / NCIMB 11770), 25 °C, CD
[4] = Sulfolobus acidocaldarius (strain ATCC 33909 / DSM 639 / JCM 8929 / NBRC 15157 / NCIMB 11770), 25 °C, Fluorescence
[5] = Sulfolobus acidocaldarius (strain ATCC 33909 / DSM 639 / JCM 8929 / NBRC 15157 / NCIMB 11770), 50 °C, CD
[6] = Thermus thermophilus (strain ATCC 27634 / DSM 579 / HB8), 25 °C, CD
[7] = Thermus thermophilus (strain ATCC 27634 / DSM 579 / HB8), 25 °C, Fluorescence

B1: Inorganic pyrophosphatase wild type, P0A7A9 (protein)
chain: MSLLNVPAGKDLPEDIYVVIEIPANADPIKYEIDKESGALFVDRFMSTAMFYPCNYGYINHTLSLDGDPVDVLVPTPYPLQPGSVIRCRPVGVLKMTDEAGEDAKLVAVPHSKLSKEYDHIKDVNDLPELLKAQIAHFFEHYKDLEKGKWVKVEGWENAEAAKAEIVASFERAKNK
denaturant m value [1]: 3.35 kcal/mol/M
denaturant midpoint (higher = more stable) [1]: 4.9 M
denaturant m value [2]: 3.35 kcal/mol/M and 2.63 kcal/mol/M
denaturant midpoint (higher = more stable) [2]: 4.9 M and 4.5 M
Tm (Escherichia coli (strain K12), CD, EDTA 5 mM): 58 °C

B2: Inorganic pyrophosphatase wild type, P50308 (protein)
chain: MKLSPGKNAPDVVNVLVEIPQGSNIKYEYDDEEGVIKVDRVLYTSMNYPFNYGFIPGTLEEDGDPLDVLVITNYQLYPGSVIEVRPIGILYMKDEEGEDAKIVAVPKDKTDPSFSNIKDINDLPQATKNKIVHFFEHYKELEPGKYVKISGWGSATEAKNRIQLAIKRVSGGQ
denaturant m value [3]: 5.5 kcal/mol/M
denaturant midpoint (higher = more stable) [3]: 3.1 M
denaturant m value [4]: 8.13 kcal/mol/M and 6.93 kcal/mol/M and 5.98 kcal/mol/M
denaturant midpoint (higher = more stable) [4]: 3.2 M and 2.9 M and 3.1 M
denaturant m value [5]: 6.93 kcal/mol/M and 5.74 kcal/mol/M
denaturant midpoint (higher = more stable) [5]: 2.8 M and 2.9 M

B3: Inorganic pyrophosphatase wild type, P38576 (protein)
chain: MANLKSLPVGDKAPEVVHMVIEVPRGSGNKYEYDPDLGAIKLDRVLPGAQFYPGDYGFIPSTLAEDGDPLDGLVLSTYPLLPGVVVEVRVVGLLLMEDEKGGDAKVIGVVAEDQRLDHIQDIGDVPEGVKQEIQHFFETYKALEAKKGKWVKVTGWRDRKAALEEVRACIARYKG
denaturant m value [6]: 5.74 kcal/mol/M
denaturant midpoint (higher = more stable) [6]: 4.7 M
denaturant m value [7]: 5.74 kcal/mol/M
denaturant midpoint (higher = more stable) [7]: 5.1 M and 4.7 M
Tm (Thermus thermophilus (strain ATCC 27634 / DSM 579 / HB8), CD, EDTA 5 mM): 86 °C
Tm (Thermus thermophilus (strain ATCC 27634 / DSM 579 / HB8), CD): 96 °C
